Reference: patent US20120321619A1 (Bayer, published 2012)

B1: M20-D02 S-A (antibody, human IgG1, V domains shown)
VH: EVQLLESGGGLVQPGGSLRLSCAASGFTFSDYQMTWIRQTPGKGLEWVSGVSWNGARTHYADSVKGRFTISRDNSKNTLYLQMNSLRAEDTAVYYCAKGDYLVYSAYYFDSWGQGTLVTVTS
VL: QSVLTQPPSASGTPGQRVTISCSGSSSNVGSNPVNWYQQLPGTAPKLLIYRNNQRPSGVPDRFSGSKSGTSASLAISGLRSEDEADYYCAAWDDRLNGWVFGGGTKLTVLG
notes: tested as human IgG1
B2: M31-B01 (antibody, human IgG1, V domains shown)
VH: EVQLLESGGGLVQPGGSLRLSCAASGFTFSNAWMSWVRQAPGKGLEWVSYISSSGSTIYYADSVKGRFTISRDNSKNTLYLQMNSLRAEDTAVYYCAREGLWAFDYWGQGTLVTVTS
VL: QSVLTQPPSASGTPGQRVTISCTGSSSNIGAGYVVHWYQQLPGTAPKLLIYDNNKRPSGVPDRFSGSKSGTSASLAISGLRSEDEADYYCAAWDDRLNGPVFGGGTKLTVLG
notes: tested as human IgG1

What was measured:
hC4.4a domain S2-Fc-his6 = target: T1, hC4.4a domain S2-Fc-his6 (human, UniProt O95274 138-223); experiment: western blot of purified S2-Fc-6×HisTag fusion
T1 construct: C-terminal human IgG1 Fc-6×HisTag fusion from HEK293 6E cells; also called S2 Fc-6×HisTag; domain S2 of C4.4a
Description: The SDS gel was then blotted to a iblot gel transfer membrane (Invitrogen IB3010-02) using an iBlot device (Invitrogen). The membrane was blocked in DPBS pH 7.4+4% milk powder+0.1% Tween 20 for 16 h at 4° C., followed by three washing steps for 5 min at 20° C. in DPBS pH 7.4+0.1% Tween 20. M31-B01 (5.76 mg/ml) or M20-D02 S-A (3.49 mg/ml) were applied in dilutions of 1/5000 and 1/2000 respectively and incubated for 1.5 h at 20° C., followed by 2× washes in DPBS pH 7.4+0.1% Tween 20. The second antibody (alk. Phosphatase. Conjugate Goat anti human IgG, Fab specific; 109-055-097 Jackson ImmunoResearch) was incubated at a dilution of 1/1000 for 1.5 h at 20° C. Followed by 3 washing steps for 5 min at 20° C. in DPBS pH 7.4+0.1% Tween 20. Staining was performed with Sigma Fast BCIP/NBT/1 tablet in 10 ml water at 20° C. till the bands became visible. Staining reaction was stopped by washing with water.

[1] = target: T2, human C4.4a natively expressed on tumor cell lines (human, UniProt O95274 31-326); experiment: FACS titration of IgG1 on NCI H292 cells
T2 construct: whole, on cells; also called NCI H292; NCI H322
T2 sequence (looked up): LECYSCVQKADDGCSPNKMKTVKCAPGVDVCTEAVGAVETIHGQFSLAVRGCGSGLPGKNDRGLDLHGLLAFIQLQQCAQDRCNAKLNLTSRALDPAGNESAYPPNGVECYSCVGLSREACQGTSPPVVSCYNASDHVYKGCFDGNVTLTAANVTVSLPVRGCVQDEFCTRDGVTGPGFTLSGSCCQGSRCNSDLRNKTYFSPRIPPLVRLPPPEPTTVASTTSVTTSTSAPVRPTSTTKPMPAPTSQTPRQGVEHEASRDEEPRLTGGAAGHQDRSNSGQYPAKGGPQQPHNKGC
Description: FACS titration was performed in a 96 well microtiter plate, in which serial dilutions of the primary antibody in a volume of 50 W of FACS buffer (3% FCS, in PBS) were mixed with 50 μl of a cell suspension consisting of 2×10^5 cells/ml which had been detached with Cell Dissociation Solution (1×) Non-enzymatic (Sigma), and resuspended in FACS buffer. Incubation was performed at 4° C. for 1 hour with agitation. Cells were pelleted, washed with FACS buffer and resuspended in 100 μl/well of Phycoerythrin labeled goat anti human IgG (Dianova) solution in FACS buffer. Incubation and washing was performed as before. Analysis of cell-bound antibodies was done at the respective detection wavelength using the FACS Array device. EC₅₀ values were determined from fluorescence medians of duplicates using Swift 8.0 software.

[2] = target: T3, recombinant soluble human C4.4a (human, UniProt O95274 31-308); experiment: ELISA, IgG1 on coated recombinant human C4.4a
T3 construct: recombinant, soluble, purified protein; also called hC4.4a; full length C4.4a
T3 sequence: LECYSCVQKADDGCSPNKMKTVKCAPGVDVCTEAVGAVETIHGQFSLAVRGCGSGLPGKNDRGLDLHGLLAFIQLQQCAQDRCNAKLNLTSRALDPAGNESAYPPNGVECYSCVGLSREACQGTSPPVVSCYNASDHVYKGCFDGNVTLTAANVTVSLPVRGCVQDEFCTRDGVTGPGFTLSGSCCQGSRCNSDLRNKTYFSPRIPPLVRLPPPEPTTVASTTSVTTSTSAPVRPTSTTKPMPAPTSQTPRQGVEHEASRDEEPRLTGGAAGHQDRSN
Description: FIG. 2 depicts binding curves of anti-C4.4 antibody M31-B01 and M20 D02 S-A on recombinant human C4.4a (A) and murine C4.4a (B) respectively. Briefly, 96-well MTP were coated for 16 h at 4° C. with recombinant human or mouse C4.4a (100 ng/well plates were washed 3 times with PBS/0.05% Tween 20 (=buffer B) treated with blocking reagent (PBS+2% BSA), and washed again 3 times with buffer B. After that anti C4.4a antibodies of the invention were added in concentrations of 0.39 ng to 400 ng/per well and incubated for one hour at 20° C. After washing 3 times with buffer B, 20 ng of Protein A were added in 100 μl buffer B to each well. Color reaction was developed by addition of 50 W 3,3′,5,5′-Tetramethylbenzidine (TMB) (Sigma). Data for EC₅₀ determination were recorded after 18 min by measuring extinction […] a Tecan infinite plate reader. EC₅₀ values for M31-B01 were 0.24 and 0.29 nM on human and murine C4.4a, respectively. And for M20-D02 S-A EC₅₀ values were 0.3 and 0.38 nM on human and murine C4.4a, respectively. This indicates high affinity binding of anti C4.4a antibodies of the invention to both human and murine soluble recombinant C4.4a.

Binder	binding result (hC4.4a domain S2-Fc-his6)	EC50 [1]	EC50 [2]
B1	no binding	1.3 nM	0.3 nM
B2	no binding	0.3 nM	0.24 nM
